According to the supplement of paper PMC9732359:
± gives the uncertainty stated by the source.

Experiment: protein stability index of a GFP-peptide fusion (yeast GPS) (PSI 1-4); higher = more stable; sorted into four equal gates, so the index is relative within each strain
In short: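 Plasmids isolated from each sorting gate were PCR-amplified and Illumina-sequenced, and barcodes assigned the reads to strains. The gates, four of equal size, were set by GFP/Cherry fluorescence ratio on mid-log cultures in leucine-free medium. These cultures were yeast carrying a pooled library of tiled 17-residue yeast protein peptides fused downstream of GFP on a plasmid that also expresses Cherry. The protein stability index is the sum of every gate's read frequency times its gate number.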

Sequence	protein stability index (doa10∆)	protein stability index (pdr5∆)	protein stability index (san1∆)	protein stability index (ubr1∆)
SISTYKDILNLASEVGD [ECM29]	2.63 ± 0.07	2.65 ± 0.076	2.71 ± 0.071	2.77 ± 0.054
SSLRNQELLNAETLCFT [RPN3]	2.89 ± 0.11	3.02 ± 0.15	3.22 ± 0.065	3.11 ± 0.091
SVTIISAGNDKMVKAWN [ASC1]	2.35 ± 0.22	–	–	–
HVPEKKSTDLTPKGNES [MTR3]	2.97 ± 0.12	2.43 ± 0.13	2.66 ± 0.084	3.11 ± 0.096
SKNSPAEDDVIIPQDIL [YJR042W/NUP85]	3.19 ± 0.13	2.96 ± 0.12	3.07 ± 0.12	3.36 ± 0.19
NKIMTNQINSFWSLHSS [NUT1]	1.91 ± 0.2	2.23 ± 0.15	2.06 ± 0.11	3.31 ± 0.1
TSAIEVLVGSCAYTGTG [RPN1]	3.06 ± 0.067	3.35 ± 0.062	3.29 ± 0.06	3.28 ± 0.093
KRVPNPNFLGNCNIKDF [SWP82]	2.05 ± 0.051	2.36 ± 0.04	2 ± 0.056	2.22 ± 0.032
TFLVSNDDEVSQFCYVS [RPN14]	2 ± 0.13	2.55 ± 0.23	2.28 ± 0.13	–
GTAGGNTFGSSSLFNNS [YJL041W/NSP1]	3.2 ± 0.073	3.09 ± 0.06	3.12 ± 0.055	3.21 ± 0.059
VENWIIDDKGVLMERKD [ITC1]	1.69 ± 0.099	2.98 ± 0.18	3.09 ± 0.15	2.7 ± 0.1
VRMLASPMLYKVPDISS [BRR2]	2.28 ± 0.073	2.77 ± 0.078	1.96 ± 0.1	2.28 ± 0.051
AQASEEENDLQQKLNTR [REC8]	2.96 ± 0.26	–	–	–
RSSRLHIVYSLLVNPDI [YML103C/NUP188]	1.57 ± 0.047	2.01 ± 0.05	1.87 ± 0.075	2.26 ± 0.05
NNAHSSDLGTVVFDSNE [YMR153W/NUP53]	2.56 ± 0.16	2.46 ± 0.093	2.24 ± 0.1	1.85 ± 0.082
MNGIQVDINRLKKGEVS [PRE3]	2.15 ± 0.095	1.57 ± 0.063	2.52 ± 0.082	1.36 ± 0.061
FPGDSFPVDPTTPVKLG [RRP40]	2.45 ± 0.058	2.58 ± 0.053	2.65 ± 0.045	2.62 ± 0.048
ECPAIPIFNYIFTEKIY [YJL039C/NUP192]	1.34 ± 0.035	1.46 ± 0.038	1.43 ± 0.071	1.4 ± 0.034
VRNLQGIQEVVHNTNSF [NUT1]	2.98 ± 0.079	3.15 ± 0.068	2.94 ± 0.063	3.17 ± 0.063
TRPQMPSRTRETATSER [GRR1]	2.85 ± 0.062	3.12 ± 0.06	3.03 ± 0.05	3.05 ± 0.036
PSEILHLILDKLNQKYD [GRR1]	3.14 ± 0.096	2.48 ± 0.068	2.54 ± 0.19	2.46 ± 0.061
KFMTNSTAFVPTIEYVQ [ARP9]	2.22 ± 0.062	2.65 ± 0.048	2.83 ± 0.076	2.62 ± 0.041
EERMGQIENLNEVCLEK [SMC4]	3.48 ± 0.28	–	2.47 ± 0.27	–
EAHNKALNQFKRKLLEH [RPT4]	3.32 ± 0.27	3.14 ± 0.17	3.46 ± 0.12	3.4 ± 0.15
IASTLGPSAMRLSRCIR [RPC82]	1.84 ± 0.089	2.46 ± 0.08	1.81 ± 0.083	2.4 ± 0.055
NSAVNNAISNTQDDFTT [SRP54]	3.42 ± 0.1	3.07 ± 0.07	3.04 ± 0.064	3.31 ± 0.045

Sequence	protein stability index (doa10∆)	protein stability index (pdr5∆)	protein stability index (san1∆)	protein stability index (ubr1∆)
CNNINKGLKENDVAVEK [BRR2]	3.17 ± 0.12	3.68 ± 0.18	3.25 ± 0.09	3.43 ± 0.12
VNVLLQSYFSQLKFEGF [BRR2]	1.22 ± 0.048	1.51 ± 0.046	1.28 ± 0.074	1.48 ± 0.033
EEVEDQINPTRETNDDI [SNF2]	2.25 ± 0.079	1.74 ± 0.082	1.45 ± 0.11	1.58 ± 0.062
SQQNIVPNSSDQAELPN [SNF2]	2.73 ± 0.06	2.67 ± 0.079	3.04 ± 0.057	3.01 ± 0.069
KRQFNNSYWLIILLGVL [ITC1]	2.16 ± 0.066	1.6 ± 0.056	1.5 ± 0.1	1.97 ± 0.04
TQDDFTTSVDVMLKGIV [SRP54]	1.63 ± 0.1	2.23 ± 0.081	1.67 ± 0.12	1.51 ± 0.047
RYEEFADKVKLGRVRNH [RPC40]	2.93 ± 0.064	2.99 ± 0.074	3 ± 0.068	2.96 ± 0.056
LDKNLIKLVKQNDELKF [RPC34]	1.16 ± 0.077	1.21 ± 0.073	1.43 ± 0.18	2.18 ± 0.1
LLGEGESKLKIDPDTKA [RPB11]	2.93 ± 0.19	–	–	3.14 ± 0.24
VDVNNKFIALCEQQPSQ [SIN4]	2.82 ± 0.051	2.96 ± 0.05	3.18 ± 0.052	3 ± 0.059
PKAISNFLIKLSELSPG [YCS4]	2.37 ± 0.08	2.51 ± 0.085	2.08 ± 0.095	2.01 ± 0.056
KIFVETKFSKLIGRPPL [FAS1]	1.97 ± 0.29	2.54 ± 0.093	2.35 ± 0.11	1.79 ± 0.059
FMNDAAADVSAVDAKQL [YML103C/NUP188]	2.52 ± 0.095	2.54 ± 0.099	3.06 ± 0.091	2.21 ± 0.081
TTKMWPTNCPLRQFKTC [BRR2]	2.41 ± 0.093	2.31 ± 0.095	2.01 ± 0.082	2.34 ± 0.086
ASGSINRKVLQALEKIG [RPS19A]	1.39 ± 0.071	2 ± 0.12	1.67 ± 0.11	1.99 ± 0.066
EKDAKINKLMEKDFQVN [SIR4]	3.22 ± 0.067	3.44 ± 0.07	3.3 ± 0.07	3.47 ± 0.055
VASLVLARGHRVEKIPE [RPL4A]	–	3.4 ± 0.24	–	–
CRELHNKHLTTLVEIFL [SSN3]	1.59 ± 0.04	2.03 ± 0.045	1.82 ± 0.065	1.7 ± 0.04
WTEKKGKNVINRERFIS [SMD2]	2.54 ± 0.16	1.54 ± 0.066	1.11 ± 0.19	3.05 ± 0.087
VIAKLNHNQFECKGCDN [RPB2]	2.93 ± 0.054	3.14 ± 0.067	3 ± 0.05	3.01 ± 0.097
AGIVPVSANTPKSLNSN [SWI1]	3.07 ± 0.059	3.04 ± 0.066	3.04 ± 0.048	3.22 ± 0.043
VKQVLLSVEIGVLTDIS [NUT1]	1.16 ± 0.063	1.47 ± 0.056	1.37 ± 0.18	1.64 ± 0.066
LHLAVGKKWFEVSQFLI [NAS6]	2.12 ± 0.076	1.63 ± 0.059	1.63 ± 0.091	1.51 ± 0.073
ASHNEKDQDSQIELSCN [SRP72]	2.85 ± 0.079	2.41 ± 0.079	2.9 ± 0.051	3.1 ± 0.058
LKPEIEKLTSKSLDEQL [LRP1]	3.22 ± 0.083	3.26 ± 0.07	2.85 ± 0.077	2.88 ± 0.063
